Laboratory results as given in US20250018039A1 (published 2025).

Target: T1, wild-type human RAS (KRAS) peptide on HLA-A*03:01 (human)
T1 peptide: VVVGAGGVGK
Assay: cytokine release
Experimental: Cos7 cells transduced with human HLA A*03:01 were independently pulsed with the G12V RAS peptide […] (SEQ ID NO: 33) or the corresponding wild-type peptide […] The transduced cells (effector cells) were co-cultured with the peptide-pulsed target cells. Interferon-gamma secretion was measured.

B1: TCR 807 (TCR, V domains shown)
Valpha: QQKVQQSPESLSVPEGGMASLNCTSSDRNFQYFWWYRQHSGEGPKALMSIFSDGDKKEGRFTAHLNKASLHVSLHIRDSQPSDSALYFCAARPGTQVVGQLTFGRGTRLQVYA
Vbeta: AQTIHQWPVAEIKAVGSPLSLGCTIKGKSSPNLYWYWQATGGTLQQLFYSITVGQVESVVQLNLSASRPKDDQFILSTEKLLLSHSGFYLCAWRDRPSSYEQYFGPGTRLTVL
binding result: no recognition
